Results published in patent US12428627B2, “Mutant p-hydroxyphenylpyruvate dioxygenase, and coding nucleic acid and use thereof” (Qingdao Kingagroot Chemical Compound Co., Ltd., priority 2018, dated 2025).
Numbering of substitutions follows the chain as printed. Names may count otherwise.

B1: N338D/G342D/R346H: mutant rice HPPD (protein, listed as Oryza sativa)
chain: MPPTPTPTATTGAVSAAAAAGENAGFRLVGHRRFVRANPRSDRFQALAFHHVELWCADAASAAGRFAFALGAPLAARSDLSTGNSAHASLLLRSASVAFLFTAPYGGDHGVGADAATTASIPSFSPGAARRFAADHGLAVHAVALRVADAADAFRASVAAGARPAFQPADLGGGFGLAEVELYGDVVLRFVSHPDGADAPFLPGFEGVSNPGAVDYGLRRFDHVVGNVPELAPVAAYISGFTGFHEFAEFTAEDVGTAESGLNSVVLANNAETVLLPLNEPVHGTKRRSQIQTYLDHHGGPGVQHIALASDDVLGTLREMRARSAMGGFEFLAPPPPDYYDDVRRHAGDVLSEEQINECQELGVLVDRDDQGVLLQIFTKPVGDRPTFFLEMIQRIGCMEKDESGQEYQKGGCGGFGKGNFSELFKSIEEYEKSLEAKQAPTVQGS
modifications: The amino acid sequence of Wild-Type rice HPPD protein (OsHPPD _WT)
B2: H141R/N338D/G342D/P386T: mutant rice HPPD (protein)
chain: B1 chain with H141R, H346R, P386T
B3: H141R/N338D/G342D/K418P: mutant rice HPPD (protein)
chain: B1 chain with H141R, H346R, K418P
B4: WT: wild-type rice p-hydroxyphenylpyruvate dioxygenase (OsHPPD), SEQ ID NO: 2 (protein, listed as Oryza sativa)
chain: B1 chain with D338N, D342G, H346R
modifications: The amino acid sequence of Wild-Type rice HPPD protein (OsHPPD _WT)

What was measured:
OsHPPD proteins = test: Inhibitory activity (IC50) of the herbicide 101 and huanbifucaotong against OsHPPD proteins; assay type: biochemical, Oryza sativa; details: for resistance in in vitro enzyme activity experiments: herbicides 101 and huanbifucaotong
Description: (§1) • 1. The activity of a HPPD enzyme was determined by detecting the conversion of 4-hydroxyphenylpyruvate (4-HPP) to homogentisic acid (HGA) catalyzed by the HPPD enzyme and the conversion of HGA to maleylacetoacetate (MAA) catalyzed by homogentisate dioxygenase. […] 6 μl of 4-hydroxyphenylpyruvate (4-HPP) having a concentration that was as 50 times as the final concentration of the substrate were added to an ELSA plate, and then 294 μL of hydroxyethylpiperazine ethanesulfonic acid (HEPES) with a final concentration of 25 mM and pH of 7, 2 mM of Vitamin C, 10 mM FeSO4, 50 nM homogentisate dioxygenase and 5 to 240 nM HPPD enzyme were added thereto at one time. The final concentration of reaction substrate 4-HPP usually ranged from 1 to 100 μM. • 3. The absorbance changes of the reaction wells at 318 nm were continuously monitored by a UV ELISA detector (ReadMax 1900 photoabsorption type full-wavelength microplate reader) (Shanghai). • 4. Determination of Km, Kcat and Kcat/Km of OsHPPDs
• 5. Determination of inhibitory activity (IC50) of the herbicide 101 and huanbifucaotong against OsHPPD proteins
Due to the unique properties of each of 101 and huangbifucaotong, the degree of the increased IC50 value is not completely consistent for the two HPPD herbicides.

OsHPPD = test: HPPD enzyme activity assay: Km, Kcat and Kcat/Km of OsHPPDs; assay type: biochemical, Oryza sativa; details: for Km: substrate 4-HPP
Description: The rice OsHPPD protein and homogentisate 1,2-dioxygenase (HGD) were obtained by heterologously expressed in E. coli wherein the gene was inserted into the pET 15b expression vector and expressed in the BL21 (DE3) expression strain, and purified by the Ni-NTA resin. • (1) The HPPD open reading frame (ORF) of the positive clone was cloned into the pET-15b vector to form a 6His-HPPD expression vector, and transformed into the BL21 (DE3) cell. The expression strain was inoculated in 10 mL of 2×YT culture medium, and cultivated overnight on a shaker at 37° C. and 200 rpm. The 10 mL of the culture was inoculated in 1 L of 2×YT culture medium and cultivated until the OD600 reached 0.6-0.8, cooled to a temperature of 16° C., and subjected to induced-expression with 0.2 mM IPTG (isopropyl thiogalactoside) overnight. The strains were collected by centrifugation at 2800×g. • (2) The collected strains were re-suspended with the buffer A (50 mM Tris pH 8.0, 500 mM NaCl, 20 mM imidazole), to which PMSF (phenylmethanesulfonyl fluoride) at the final concentration of 1 mM and 250 μL of a protease inhibitor cocktail (i.e., a mixture of multiple protease inhibitors), and mixed. The cells were broken by ultrasound in ice-bath (40% total power, work for 3 seconds/6 seconds interval, 2×30 minutes (Ningbo Scientz Biotechnology Co., Ltd., Ningbo, China)), and centrifuged at 12000 rpm at 4° C. for 30 minutes; and the supernatant was filtered with a 0.22 μm filter membrane. • (3) Purification with the Ni-NTA column: the supernatant was in contact with the Ni-NTA resin, then rinsed with a buffer A containing 50 mM imidazole to remove the impurities, and finally, eluted with an elution buffer containing 400 mM imidazole. • (4) The approximate purity of the protein of interest was analyzed by SDS-PAGE. The eluates containing of the protein of interest were combined and concentrated by an ultrafiltration device (10 kDa molecular weight cut-off, Amicon Ultra). The solution was replaced with a solution containing 20 mM Tris-HCl and having a pH of 7.5 for at least 3 times to desalt. The total protein concentration was determined by the BCA method.
as §1
Vmax is the maximum catalytic reaction rate achievable by enzymatic catalysis. The Michaelis constant Km is the concentration of a substrate required when the enzyme catalyzed the reaction to achieve half of the maximum rate (Vmax). The Km value is a constant and independent of the enzyme concentration, and altered as substrate type, reaction temperature, pH, and ionic strength changed. […] is a catalytic constant of an enzyme and referred to the number of substrate molecules that could be catalyzed by an enzyme molecule or enzyme active center per second. KCat/Km represents the catalytic efficiency of enzyme. It could be seen from the data in the table that the catalytic efficiency of most HPPD mutants was enhanced.

rice HPPD (OsHPPD) = test: Color reaction of recombinant E. coli expressing wild-type or mutant rice HPPD, cultured in 96-well plate in medium containing an HPPD-inhibiting herbicide and tyrosine; assay type: cell-based, Oryza sativa; design: key to relative resistance to Tembotrione / relative resistance to Benzuofucaotong metabolic product / relative resistance to Huanbifucaotong / relative resistance to Topramezone / relative resistance to Mesotrione / resistance to Tembotrione / resistance to Benzucfucaotong metabolic product / resistance to Huanbifucaotong / resistance to Topramezone / resistance to Mesotrione: The more the plus sign “+”, the deeper the color and the higher the resistance/tolerance as compared to the wild type; details: for resistance ranking in color reaction: compound 101
Description: The rice full-length OsHPPD enzyme has 446 amino acids and its amino acid sequence is set forth in SEQ ID NO: 2, wherein the amino acids 1-50 are considered to constitute a signal peptide which is responsible for directing into chloroplast (Siehl et al. Plant Physiol. 2014 November; 166(3): 1162-1176). Therefore, from the amino acid at the 51-position to the amino acid at the […], a saturated random mutation was made for each amino acid. This was achieved by performing a bridge PCR by using a primer containing a coding sequence of an amino acid to be mutated into NNK and another suitable conventional primer. In NNK, N represented A/T/G/C and K represented G/T, and the NNK codon could encode any one of 20 amino acids or terminators. Accordingly, this was a saturated mutation. Please see: Kille S. Acevedo-Rocha C G, Parra L P, Zhang Z G, Opperman D J, Reetz M T, Acevedo J P (2013) Reducing codon redundancy and screening effort of combinatorial protein libraries created by saturation mutagenesis. ACS Synth Biol 2(2):83-92; Directed Evolution Library Creation: methods and protocols 2nd ed. Edited by Elizabeth M. J. Gillam, Janine N. Copp and David F. Ackerley New York, NY United States: Springer, 2014. doi:10.1007/978-1-4939-1053-3. A large number of mutants would be produced. The mutant was cloned into a linearized pET-44a vector and transformed into E. co/i, which was cultivated by using a 96-well plate in a 2×YT culture solution containing an HPPD-inhibiting herbicide (such as 1-2 μM tembotrione) and a substrate tyrosine (1 g/L) in a shaker at 28° C. and 150 rpm for 24 hours for expression, and then the mutants were rapidly screened out according to their color browning. By using the method, 10 single amino acid mutants, A103S, H141R, H141 K, H141T, A165V, V191I, R220K, G342D, D370N and K410I, were screened out. The color reaction of these resistant mutants in the presence of tembotrione and the metabolic product of benzuofucaotong relative to that of the wild type was as shown in FIG. 1.
Similarly, the color reaction of these mutants in the presence of the other three HPPD-inhibiting herbicides huanbifucaotong, topramezone and mesotrione were determined, see FIGS. 2 and 3. The resistance/tolerance of each of the mutants to the five herbicides was roughly estimated on the basis of color changes thereof and the results were shown in Table 1. The more the plus sign “+”, the deeper the color and the higher the resistance/tolerance as compared to the wild type.
HPPD-inhibiting herbicides inhibited HPPD enzymatic activity. When tyrosine was converted to 4-hydroxyphenylpyruvate (HPP) under the action of tyrosine transaminase, the inactivated HPPD was unable to oxidize 4-hydroxyphenylpyruvate into homogentisic acid (HGA). HGA was dark brown. Therefore, if an HPPD mutant was resistant to or tolerant to an herbicide, after expressed in E. coli, the mutant could also oxidize 4-hydroxyphenylpyruvate into homogentisic acid, whereby dark brown appeared. Therefore, E. coli was cultured in a 2×YT culture medium containing a HPPD-inhibiting herbicide and a substrate tyrosine using a 96-well plate to express HPPD, and these mutants were rapidly screened according to their color changes. • (1) Preparation of 2×YT culture medium (1 g/L L-Tyr, 0.1 mM IPTG, 0.01 mM MnCl2 and 100 mg/L ampicillin were added). • (2) 0.1 mL of the above medium was added to each well of a 96-well plate, and the expression clones of OsHPPD wild type or mutant (OsHPPD Mut) from the E. coli plate obtained by the above transformation were subjected to liquid culture in the 96-well plate. HPPD inhibitors having a final concentration of 1 μM-20 μM were added according to different selected agents, for example, the final concentration of tembotrione was 1.7 μM while mesotrione was 10 μM. […]

[1] = Table 1, single-site mutants, estimated from color change, wild type = +
[2] = Table 3, single-site and multi-site mutants, different time and plates, estimated from color shades

Molecule | resistance in in vitro enzyme activity experiments (OsHPPD proteins) | Km (OsHPPD) | resistance ranking in color reaction (rice HPPD (OsHPPD)) | affinity to substrate (Km) (OsHPPD) | concentration of compound 101 at which activity is completely inhibited (OsHPPD proteins; FIG. 10 inhibition curve) | relative resistance to Benzuofucaotong metabolic product (rice HPPD (OsHPPD); [1]) | relative resistance to Huanbifucaotong (rice HPPD (OsHPPD); [1]) | relative resistance to Mesotrione (rice HPPD (OsHPPD); [1]) | relative resistance to Tembotrione (rice HPPD (OsHPPD); [1]) | relative resistance to Topramezone (rice HPPD (OsHPPD); [1]) | resistance to Benzucfucaotong metabolic product (rice HPPD (OsHPPD); [2]) | resistance to Huanbifucaotong (rice HPPD (OsHPPD); [2]) | resistance to Mesotrione (rice HPPD (OsHPPD); [2]) | resistance to Tembotrione (rice HPPD (OsHPPD); [2]) | resistance to Topramezone (rice HPPD (OsHPPD); [2])
B1 | good resistance | 6.3 µM | highest resistance |  |  |  |  |  |  |  |  |  |  |  | 
B2 | relatively high resistance | 9.7 µM |  | not reduced |  |  |  |  |  |  |  |  |  |  | 
B3 | higher resistance | 18.8 µM | strongest resistance |  |  |  |  |  |  |  |  |  |  |  | 
B4 |  | 6.7 µM |  |  | about 60 μM | + | + | + | + | + | + | + | + | + | +
